Test results from paper PMC12441935, “De novo designed 3-helix bundle peptides and proteins with controlled topology and stability” (Chemical Science, 2025).

Molecular target: the molecule itself
Test: AUC; sedimentation velocity and sedimentation equilibrium of the individual peptides N and N′, 20 °C

B1: apCCTri-N (peptide)
chain: KLAALEKKLAALEKKTAALEYKLAAL
- stoichiometry N: 3

B2: apCCTri-N′ (peptide)
chain: ELAALKEELAALKEETAALKYELAAL
- stoichiometry N: 3
